Columns and labels:
Human whole blood = assay: T cell count in whole blood at 24 hrs; assay type: cell-based; conditions: Fab-KD-Fab or BYbe 100 nM, Campath 10 μg/ml, in comparison with PBS- and NegCtrl BYbe-treated wells
Description: Human whole blood (Lithium heparin tubes) was taken from one donor (HTA #031219-06) at UCB Pharma Slough, UK according to approved ethical sample collection protocol.
In a Greiner 96-well non-binding microplate, Fab-X and Fab-Y combination 6294-X/4133-Y was added to PBS to give a Fab-KD-Fab concentration of 2000 nM. Similarly, stocks of 4133-6294 BYbe and NegCtrl BYbe were prepared in PBS at 2000 nM. The microplate was incubated for 1 hr at 37° C., 5% CO2. Following the incubation, Fab-KD-Fab and BYbe reagents were then serially diluted in PBS 1 in 5, seven times to produce to form an 8-point dose curve.
12.5 μl of Fab-KD-Fab or BYbe dilution was transferred into Corning Costar 96-well, cell culture treated, U-shaped-bottom microplate (cat no. 07-200-95) and 237.5 μl of whole blood added to each well. Final well concentrations of Fab-KD-Fab or BYbes were 100-0.00128 nM. Campath (clinical grade, diluted from 30 mg/ml stock to 1 mg/ml in PBS, lot number F1002H29) was used as a positive control at a final concentration of 10 μg/ml. Plates were sealed with a gas permeable adhesive seal and plate lids were replaced. […]
Following the incubation with the antibody cocktail, cells were washed twice as outlined above and buffer aspirated to leave the cells in 20 μl residual buffer. […] Cells were analysed live using the Intellicyt iQue Screener PLUS. […]

THP-1 = assay: Apoptosis of cell lines: THP-1; assay type: cell-based; conditions: THP-1, 21 hrs
Source text: The following cell lines representing various leukaemia's and lymphoma's, as classified by ATCC (www.atcc.org/), were used: Jurkat—acute T-cell leukaemia; CCRF-SB—B-cell acute lymphoblastic leukaemia; MC116—B-cell undifferentiated lymphoma; Raji, Ramos—Burkitt lymphoma (rare form of B-cell non-Hodgkin lymphoma); SU-DHL-4, SU-DHL-5, SU-DHL-8, NU-DUL-1, OCI-Ly3—Diffuse large B-cell lymphoma; THP-1—acute monocytic leukaemia; and Dakiki—B cell nasopharyngeal carcinoma.
Prior to an assay being performed, 1 vial of each of the above cell lines was thawed in a 37° C. water bath and then added to 20 ml complete media (RPMI 1640+2 mM GlutaMAX+1% Pen/Strep, all previous supplied by Invitrogen, +10% Fetal Bovine Serum (FBS), Sigma Aldrich). Cells were spun (500 g, 5 min, at RT) and re-suspended in 20 ml complete media to wash and spun again. Cells were resuspended in 10 ml complete media and then counted using a ChemoMetec NucleoCounter NC-3000. 6×10^6 cells of each cell line were spun (500 g, 5 min, at RT) and re-suspended in 4.8 ml complete media. 1×10^5 cells in 80 μl were then added to each well of a Corning Costar 96-well, cell culture treated, U-shaped-bottom microplate (cat no. 07-200-95). The plate was rested in a 37° C., 5% CO2 incubator for 2 hrs
Stocks of 4133-6294 BYbe and NegCtrl BYbe at 2500 nM in complete media were prepared. In a Greiner 96-well non-binding microplate, both reagents were serially diluted in complete media 1 in 5, seven times to produce to form an 8-point dose curve. […] (final well concentrations 500-0.0064 nM) was added to the cells. Each concentration was produced in triplicate. Camptothecin (cat no. C9911-100MG, Sigma Aldrich) and Staurosporine (cat no. 56942-200UL, Sigma Aldrich) were added as positive controls of apoptosis. Both were diluted in complete media and added to the well to produce a final concentration of 5 μM. Additional positive controls included anti-thymocyte globulin (ATG, indicated by FDA for use in conditioning regimens), Rituximab (anti-CD20, indicated by FDA for Non-Hodgkin Lymphoma and Chronic Lymphocytic Leukaemia) and Campath (anti-CD52, indicated by FDA for B-cell Chronic Lymphocytic Leukaemia). Anti-thymocyte globulin, Rituximab and Campath were added to the wells to produce final concentrations of 200 μg/ml, 500 nM and 200 μg/ml, respectively. […]
Following the incubation, the plates were spun at 500 g, 5 min, RT, the buffer was aspirated with a BioTek ELx405 microplate washer, and the cells were re-suspended in FACS buffer (PBS+1% bovine serum albumin (BSA)+0.1% NaN3+2 mM EDTA, Sigma Aldrich) to wash and then re-spun and buffer was aspirated to leave the cells in 20 μl residual media. […] Cells were analysed using the Bio-Rad ZE5 Cell Analyzer. […]

Campath: anti-CD52, clinical grade, indicated by FDA for B-cell Chronic Lymphocytic Leukaemia; positive control [reference compound]
reduction in T cell numbers (Human whole blood): roughly 8 fold
Campath mean (%) cell reduction (THP-1; 200 μg/ml): 15.40%

B1: 4133-6294 BYbe: anti-CD45 BYbe (Fab-scFv): 4133 Fab HC-G4S linker-6294 scFv heavy chain paired with 4133 light chain (antibody)
heavy: QEQLVESGGGLVQPEGSLTLTCTASGFSFSGNYYMCWVRQAPGKGLEWIGCLYTGSSGSTYYASWAKGRFTISKTSSTTVTLQMTSLTAADTATYFCARDLGYEIDGYGGLWGQGTLVTVSSGQPKAPSVFPLAPCCGDTPSSTVTLGCLVKGYLPEPVTVTWNSGTLTNGVRTFPSVRQSSGLYSLSSVVSVTSSSQPVTCNVAHPATNTKVDKTVAPSTCSKPGGGGSGGGGSEVQLVESGAELARPGASVKMSCKASGYTFTSYTMHWVKQRPGQCLEWIGYINPSSGYTEYNQKFKDKTTLTADKSSSTAYLQLSSLTSEDSAVYYCARVGDGFYPSWLAYWGQGTLVTVSSGGGGSGGGGSGGGGSGGGGSDIQMTQSPKFLLVSAGDRVTITCKASQSVRNDVAWYQQKPGQSPKLLIFYASKRYTGVPDRFTGSGYGTDFTFTISTVQAEDLAVYFCQQDYSSPTTFGCGTKLEIK
light: AQVLTQTPSPVSAVVGGTVSISCQASQSVYNNNNLSWYQQKPGQPPKLLIYDASKLASGVPSRFKGSGSGTQFTLTISGVQCDDAATYYCLGGYYSSGWYFAFGGGTKVVVKRTPVAPTVLIFPPAADQVATGTVTIVCVANKYFPDVTVTWEVDGTTQTTGIENSKTPQNSADCTYNLSSTLTLTSTQYNSHKEYTCKVTQGTTSVVQSFNRGDC
reduction in T cell numbers (Human whole blood): 5 fold
Bottom (%) level of % cell reduction (THP-1): 8.14%
Top (%) level of % cell reduction (THP-1): 60.72%
